The assay deals with Biotin-GG-KQTSV. The experiment in a line: micro-calorimetry (isothermal titration). For orientation: In ITC the heat of successive injections is recorded.

B1: wild-type PDZ (PDZ3 of PSD095) domain, Q62108 302-402 (protein, mouse, UniProt Q62108 302-402, looked up)
chain: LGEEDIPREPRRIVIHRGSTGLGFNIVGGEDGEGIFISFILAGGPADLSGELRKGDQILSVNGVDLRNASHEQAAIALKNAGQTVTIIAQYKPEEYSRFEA
By Kd is commonly meant the free concentration of one partner at which half of the binding sites on the other are occupied at equilibrium, for simple one-to-one binding. Read a high Kd as lower affinity. B1 came in with a Ka of 25700 M⁻¹ and a Kd of 39 µM.
